Experiment [1] has as its target human FcRIII-GST (CD16a, V158) (human) (UniProt P08637). The experiment can be described thus: Alphascreen assay, human FcγR CD16a.
The target of experiment [2] is cynomolgus FcγR III (CD16a) (cynomolgus) (UniProt Q8SPW2). Put plainly: Alphascreen assay, cynomolgus FcγR CD16a.
Experiment [3] deals with cynomolgus FcγR IIa (CD32a) (cynomolgus). Put plainly: Alphascreen assay, cynomolgus FcγR CD32a (R).

Chain of human FcRIII-GST (CD16a, V158) (human) (P08637 17-208 F176V limits assumed): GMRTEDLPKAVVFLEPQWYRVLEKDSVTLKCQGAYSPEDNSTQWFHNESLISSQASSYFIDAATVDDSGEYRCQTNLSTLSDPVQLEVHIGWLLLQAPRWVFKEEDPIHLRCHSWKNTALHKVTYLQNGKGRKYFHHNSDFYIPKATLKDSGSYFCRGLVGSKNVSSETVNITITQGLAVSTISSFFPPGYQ
Chain of cynomolgus FcγR III (CD16a) (cynomolgus) (Q8SPW2 17-208 limits assumed): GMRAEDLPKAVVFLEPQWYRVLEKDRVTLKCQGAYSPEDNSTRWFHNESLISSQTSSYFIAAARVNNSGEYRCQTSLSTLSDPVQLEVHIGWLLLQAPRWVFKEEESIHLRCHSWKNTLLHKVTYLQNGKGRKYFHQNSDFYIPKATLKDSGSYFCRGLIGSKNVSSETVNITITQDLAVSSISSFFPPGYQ

With Agly 5c8 IgG1 (antibody), the EC50 is 1840 nM in experiment [1], 2320 nM in experiment [2] and 1170 nM in experiment [3].

(Values after patent US20090252729A1.)
